Results taken from the supplement of paper PMC9170038.

System: MS2 coat protein
Assay: apparent KD of MS2 coat protein; designed switch direction (-1 OFF switch, 1 ON switch): -1; higher = weaker reporter binding
Procedure, shortened: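 Stalled E. coli RNA polymerase transcribed designed RNA switches on Illumina chips, which were then titrated with SNAP-549-labelled MS2 coat protein, doubling from 0.7 or 1.5 nM to 3 µM. Steps lasted from 0.8–1.5 h at the lowest concentration to 10–20 min at the highest. The apparent KD is each design's median over clusters of curve-fitted normalised fluorescence.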

[1] = input ligand: microRNA oligo, concentration not stated
[2] = Eterna round: R95, input ligand: FMN 200 uM
[3] = Eterna round: R95, input ligand: microRNA oligo, concentration not stated
[4] = Eterna round: R95, input ligand: none

Sequence | apparent KD of MS2 coat protein (input ligand: FMN 200 uM) | apparent KD of MS2 coat protein (input ligand: none) | apparent KD of MS2 coat protein [1] | apparent KD of MS2 coat protein [2] | apparent KD of MS2 coat protein [3] | apparent KD of MS2 coat protein [4]
GACUGACAUGAGGAUCACCCAUGUAAGGAUAUAGGGAGCGUCGCUCCGCAACCCGCGCCUAGAAGGUACAAGGU [EX1 C.20] (Eterna round: R97, puzzle: Exclusion 1) | 18.2 nM | 21.2 nM | – | – | – | –
AAUCAACAUGAGGAUCACCCAUGUGAGGAUAUACGCAUGCAUGCAUGCAUGCAUGCAAGUAGAAGGCACAAUAC [Design #17] (Eterna round: R97, puzzle: Exclusion 1) | 42 nM | 27.9 nM | – | – | – | –
AAUUCGCAAGCGAGAUCCCACAUGAGGAUCACCCAUGUGCUCGUCUUAUAAGGUACUGUGACAAAAGUCACGGUACC [Mat - Sensor, turn-off var - Eli Mod - D84] (Eterna round: R97, puzzle: Sensor, turn-off variant 1) | 14.3 nM | 13.2 nM | – | – | – | –
CGAUAAAGCUGAGGAUAUGAGAAUAGAAAGAAAUCAGAAGGCAGACAUGAGGAUCACCCAUGUGAGUUCUCGAGAUUACAUGGU [Prohibition 46 - Jieux - Exclusion NG 1] (Eterna round: R96, puzzle: Exclusion NG 1) | – | – | 112 nM | – | – | –
GUCAUCACACAUGGGAUCAACAUGAGGAUCACCCAUGUUGUCAAGUUUUUUGCUCGUCUUAUAAUACGUUUGAUGAG [Mod-Jxd] (Eterna round: R97, puzzle: Sensor, turn-off variant 1) | 135 nM | 154 nM | – | – | – | –
AGCUGUGGCCGAGGAUAUCUGAACCUUCAAACCGAAAUAUAAUCGGACAUGAGGAUCACCCAUGUAGAGAAGGCGGUCUCAGCA [Eli eng2 - 060] (Eterna round: R96, puzzle: Exclusion NG 2) | – | – | 9.95 nM | – | – | –
CUGAGGUAGCGGUCCUAUGACAUGAGGAUCACCCAUGUACCUUGCUUUGAGCAAUUUGCUCGUCUUAUGAUUCUCGG [Mat - Sensor v3 - turn-off var 1 - JL Mod - D46] (puzzle: Sensor v3, turn-off variant 1) | – | – | – | 446 nM | 468 nM | 533 nM
UUCAUGUUAGGAUAUUCCGCCACAGAGAAAGACUGUGGAAUGAAGAAGGGACAUGAGGAUCACCCAUGUUCCAA [EX4 A.5] (Eterna round: R97, puzzle: Exclusion 4) | 14.2 nM | 14.3 nM | – | – | – | –
GGACCAUAUCAGGAUAUGACUAGCCUCGGCUAGUCAGAAGGGAUGACAUGAGGAUCACCCAUGUGAUCAGGUCC [E6/1-C2] (Eterna round: R97, puzzle: Exclusion 6) | 59.5 nM | 36.7 nM | – | – | – | –
GGAAGAAUGAGUAGUCCUCAUUGAAGAGAACAGUAAGAAACAUGAGGAUCACCCAUGUAAGAACAAGCUUUUGCUCA [JR_Sv3TOV2_Sub002] (puzzle: Sensor v3, turn-off variant 2) | – | – | – | 168 nM | 699 nM | 259 nM
GGUACUAACACGAGAGUGUUAGUACUAUAAGCUUGUGUUACAUGAGGAUCACCCAUGUCCUCAUAGGCUCGUCUUAG [Mat - Sensor v3 - Turn-off var 2 - D84] (puzzle: Sensor v3, turn-off variant 2) | – | – | – | 93.7 nM | 34.8 nM | 91.9 nM
AUGUAGUAAGGAUAUAGAAAGAAGGAGUAAGAUAGAGAGUUCUAGAAGGUACAUGAGGAUCACCCAUGUUGGAG [JR_Exclu4_Sub081] (puzzle: Exclusion 4) | – | – | – | – | 22.2 nM | –
AACCAACAUGAGGAUCACCCAUGUGAGGAUAUAGCUAACGACCAGACCUGGAAUGUUGUUAGAAGGUGCAGGGU [Eternabot (Original) Solution 4] (Eterna round: R97, puzzle: Exclusion 1) | 44.4 nM | 36.2 nM | – | – | – | –
GGUGCUGGCGCGUCGGUGUUGGUGCAAUAAGCUUGUGAAACAUGAGGAUCACCCAUGUCCUCAUAGGCUCGUCUUGU [salish99_TOv2_r2_088] (puzzle: Sensor v3, turn-off variant 2) | – | – | – | 16.4 nM | 544 nM | 14.4 nM
GGAUCGAGUGUGAGGAUAUGCUGGUCCUUGGAUCAGCAGAAGGCACAUGAGGAUCACCCAUGUGAUCAAGAUCC [Eli bmx4 4.76] (Eterna round: R97, puzzle: Brourd's mod of Exclusion 4) | 50.9 nM | 712 nM | – | – | – | –
GCAAGCUUUUGCUCGUCUUACAUGAGGAUCACCCAUGUCGGGUUCGGUCGUCGCGGCUGGGCUUGCCGGGCGCCGGG [-28.7, -55.8 kcal, A 10%] (Eterna round: R97, puzzle: Sensor, turn-off variant 1) | 215 nM | 244 nM | – | – | – | –
AACUAGGCAGGAUAUACAUGAGGAUCACCCAUGUGCCGAUACAAAGGGACUAACAGAGGUAGAAGGGCCUAGAA [ChP 13.04.2015 #1] (puzzle: Exclusion 3) | – | – | – | 100 nM | 36.2 nM | 47.8 nM
AACCUGAGGCAAAGCUUUAGGUGUACAUGAGGAUCACCCAUGUAGGAUAUGGUAGGCAAAGCUUACCAGAAGGACAUUAUGAUG [Mat - Exclusion NG 3 - Mod of JL - D51] (Eterna round: R96, puzzle: Exclusion NG 3) | 104 nM | 62.9 nM | 49.5 nM | – | – | –
GUAGAGUAAGGAUAUCAUGAAUAGGAUAGAAUGGUUAGAAAUGAGAAGGUACAUGAGGAUCACCCAUGUAAUGU [Excluse me!!!! 12 - Jieux - Exclusion 4] (puzzle: Exclusion 4) | – | – | – | 20.5 nM | 21.6 nM | 17.1 nM
CCUCCGUAUUAGGAUAUCGUCCCGGAAACGGGACGAGAAGGAAUGACAUGAGGAUCACCCAUGUUAACGUGAUG [Mod of Brourd 20 - Jieux - Exclusion 6] (Eterna round: R97, puzzle: Exclusion 6) | 48.9 nM | 20.7 nM | – | – | – | –
AGCUGACGAGGAUAUACAUGAGGAUCACCCAUGUAAGAUCAGCGACGAUAGUCGCAAUGUAGAAGGCGUCAGCU [E3/10-A2] (Eterna round: R97, puzzle: Exclusion 3) | 299 nM | 30.1 nM | – | – | – | –
CUCUCGUGAGGAUAUCUCCGCGAGAAUAAUGUUACACGCGAAGAGAAGGCACAUGAGGAUCACCCAUGUUAAAC [Eternabot (L1) Solution 31] (Eterna round: R97, puzzle: Exclusion 4) | 230 nM | 54.8 nM | – | – | – | –
ACAUGAGGAUCACCCAUGUGAAAACAAUGGCUGACUUUGAGACAGGAUAUAGGUGCAUAUCAAACCUAGAAGGGUCAUUACUGG [Deportation 93 - Jieux - Exclusion NG 3] (Eterna round: R96, puzzle: Exclusion NG 3) | 43.5 nM | 38.2 nM | 31.6 nM | – | – | –
UUUUUACAUGAGGAUCACCCAUGUCAGGAUAUCAUUAUAUUUUAUUAUUUUAUUUAUAUGAGAAGGGACUAUUA [My solution] (Eterna round: R96, puzzle: Exclusion 1) | 127 nM | 105 nM | 79.2 nM | – | – | –
CUGAGCUGAGGAUAUACAUGAGGAUCACCCAUGUGUUCGAGCUUGCGUACAGGCAGAUGUAGAAGGCAGUUCGG [JL-ex3-3.34 Brourd mod] (puzzle: Exclusion 3) | – | – | – | – | 23.8 nM | –
GAUUGACAUGAGGAUCACCCAUGUGAGGAUAUCGGCCGGACCUUGUUAGCUUCCAUCGCGAGAAGGCACAUAGG [Exclusion 1 V32] (puzzle: Exclusion 1) | – | – | – | – | 25.2 nM | –
GGUGCUGGCGCGUCGGUGUUGGUGCAAUAAGCUUGUGAAACAUGAGGAUCACCCAUGUCCUCAUAAGCUCGUCUUGU [salish99_TOv2_r2_087] (puzzle: Sensor v3, turn-off variant 2) | – | – | – | 14.4 nM | 283 nM | 12.8 nM
AAGAACGUGCAAGGAUAUCUCCACCAAACCGGCAGAGAAGGUGCACAUGAGGAUCACCCAUGUGACCUAAGGCUCUUAUGAGCC [Teismace] (Eterna round: R96, puzzle: Exclusion NG 1) | 46.6 nM | 18.5 nM | 14.6 nM | – | – | –
UAUUAAACAAGCAGAUCCCACAUGAGGAUCACCCAUGUGCUCGUCUUAUAAGGUACUGUGACGAUAGUCACGGUACC [Mat - Sensor, turn-off var - Eli Mod - D62] (Eterna round: R97, puzzle: Sensor, turn-off variant 1) | 49 nM | 54.5 nM | – | – | – | –
GUGAUCUAUCAUGGGAUAAACAUGAGGAUCACCCAUGUAAACAAGUUUUUUGCUCGUCUUAUAAUAAGAUAGAUCAC [Antenna 2 - Jieux - Sensor, turn-off variant 1] (Eterna round: R97, puzzle: Sensor, turn-off variant 1) | 21.1 nM | 20.9 nM | – | – | – | –
